Test results from patent publication US20250250357A1 (NANJING ZAIMING PHARMACEUTICAL, published 2025).

B1: S009-F1.2.12 (antibody, human IgG1, kappa, V domains shown)
VH: QVQLKQTGPGLVQPSQSLSITCTVSGFSLTNYAVHWVRQSPGKGLEWLGVIWSGGATDYNTVFISRLSISKDNSKSQVFFKVNSLQVDDTAIYYCARTGSGYAMDYWGQGTSVTVSS
VL: DIVLTQSPATLSVTPGDRVSLSCRTSHNVNTYLHWYQQKSHESPRLLIKYASQSISEIPSRFSGSGSGTNFTLSINSVETEDFGMYFCHQTNRWPLTFGAGTKLELKR
notes: human-murine chimeric antibody, human IgG1/kappa constant regions
B2: S009-F1.7.14 (antibody, human IgG1, kappa)
heavy: not shown
light: QIVLTQSPAIMSASPGEKVTISCSASSSVSYMYWYQQKPGSSPKPWISRTSNLASGVPARFSGSGSGTSYSLTISSMEAEDAATYYCQQYHSYPPTLGAGTKLELKRTVAAPSVFIFPPSDEQLKSGTASVVCLLNNFYPREAKVQWKVDNALQSGNSQESVTEQDSKDSTYSLSSTLTLSKADYEKHKVYACEVTHQGLSSPVTKSFNRGEC
notes: as for B1
B3: S009-F1.35.24 (antibody, human IgG1, kappa, V domains shown)
VH: EVQLQQSEPELVKPGASVRISCKASGYSFTDYYMHWVKQSPENRLEWIGEINPSTGGTSYNPKFKDKATLTVDKSSSTAYMQLKSLTSEESAVYYCTRYHYYGSSSYVMDYWGQGTSVTVSS
VL: QIVLTQSPAILSASPGERVTMTCSASSSVYHMHWFQQKSGTSPKRWVYDTSKLASGVPARFSGSGSGTSYSLTISSMEAEDAATYYCQHWRTNPLTFGAGTKLELKR
notes: as for B1
B4: S009-F1.56.1 (antibody, human IgG1, kappa, V domains shown)
VH: EVQLQQSGAEVVKPGASVKLSCTASGFNIRHTYMHWVKQRPEQGLEWIGRIDPANGNTEYDPKFQGKATITADTSSNTAYLQLSSLTSEDTAVYYCARDGWYIDVWGAGTTVTVSS
VL: DIVMSQSPSSLAVSVGEKVTMSCKSSQSLLYSNNQKNYLAWYQQKPGQSPKLLIYWASTRESGVPDRFTGSGSGTDFTLTISSVKAEDLAVYYCQRYYSYPWTFGGGTKLEIKR
notes: as for B1

Legend:
[1] = biological target: T1, human MSLN protein endogenously expressed on OVCAR3 tumor cells (human, UniProt Q13421 296-598); test: FACS on OVCAR3 cells
T1 construct: whole, on cells; Endogenous target on OVCAR3 cells; kept apart from the recombinant full-length construct; also called mesothelin
T1 sequence (Q13421 other isoform, or with tags, fused parts or gaps): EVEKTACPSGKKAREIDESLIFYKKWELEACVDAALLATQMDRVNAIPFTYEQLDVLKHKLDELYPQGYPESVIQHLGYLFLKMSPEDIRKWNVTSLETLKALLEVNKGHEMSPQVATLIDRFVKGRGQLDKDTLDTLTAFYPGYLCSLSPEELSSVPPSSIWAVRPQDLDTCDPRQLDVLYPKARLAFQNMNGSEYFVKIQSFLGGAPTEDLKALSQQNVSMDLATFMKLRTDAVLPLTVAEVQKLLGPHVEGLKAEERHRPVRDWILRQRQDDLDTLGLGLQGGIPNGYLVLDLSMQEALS

[2] = biological target: T2, human MSLN full-length protein (NCBI: AAH09272.1) expressed on HEK293T-hMSLN-B8 cells (human, UniProt Q13421 296-598); test: FACS on HEK293T-hMSLN-B8 cells
T2 construct: Whole encoded precursor
T2 sequence (Q13421 other isoform, or with tags, fused parts or gaps limits assumed): as the sequence (Q13421 other isoform, or with tags, fused parts or gaps) above, with R14P counted along it

[3] = biological target: T3, human MSLN-R3 protein (Met487-Ser606 of NCBI AAH09272.1) expressed on HEK293T-hMSLN-R3 cells (human, UniProt Q13421 487-606); test: FACS on HEK293T-hMSLN-R3 cells
T3 construct: also called Region3
T3 sequence (Q13421 495-614): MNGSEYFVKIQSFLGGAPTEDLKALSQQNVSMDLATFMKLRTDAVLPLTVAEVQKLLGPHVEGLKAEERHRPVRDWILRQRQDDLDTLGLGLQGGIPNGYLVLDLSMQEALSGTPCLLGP

[4] = biological target: T4, monkey MSLN full-length protein (NCBI: XP_028696439.1) expressed on HEK293T-monkey MSLN cells (monkey); test: FACS on HEK293T-monkey MSLN cells
T4 construct: Whole encoded precursor
T4 chain: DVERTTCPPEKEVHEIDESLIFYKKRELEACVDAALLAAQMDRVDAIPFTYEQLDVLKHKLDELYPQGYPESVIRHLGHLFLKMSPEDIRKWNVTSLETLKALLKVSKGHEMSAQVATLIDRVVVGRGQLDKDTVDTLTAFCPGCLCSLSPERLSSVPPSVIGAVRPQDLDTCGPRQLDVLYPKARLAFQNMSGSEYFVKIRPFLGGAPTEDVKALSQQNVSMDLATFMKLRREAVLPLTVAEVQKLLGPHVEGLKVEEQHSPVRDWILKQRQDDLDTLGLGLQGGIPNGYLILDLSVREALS

| Binder | EC50 [1] | Maximum mean fluorescence intensity [1] | EC50 [2] | Maximum mean fluorescence intensity [2] | Maximum mean fluorescence intensity [3] | binding result [3] | EC50 [4] | Maximum mean fluorescence intensity [4] |
| --- | --- | --- | --- | --- | --- | --- | --- | --- |
| B1 | 1.87 nM | 9620 | ~0.86 nM | 87200 | 239 | no binding | 1.39 nM | 29200 |
| B2 | – | 2250 | 3.4 nM | 70300 | 239 | no binding | 5.69 nM | 47500 |
| B3 | 2.08 nM | 10500 | 2.93 nM | 109000 | 680 | no binding | 4.75 nM | 52100 |
| B4 | 0.67 nM | 11700 | 1.59 nM | 96300 | 363 | no binding | 0.79 nM | 43100 |
